The values that follow come from patent US12517112B2, “Immune cell organoid co-cultures” (Koninklijke Nederlandse Akademie van Wetenschappen, priority 2017, dated 2026).

One assay has as its system CD274 (PD-L1). Description: PD-L1 expression in colon organoid lines upon IFN-γ stimulation (qPCR and flow cytometry). Format: cell-based. The note with it: organoids treated with 20 ng/mL recombinant human IFN-γ. From the text: (§1) Cells were sorted as single cells into 96-well plates using a BD FACS Aria (BD Biosciences) cytometer. For flow cytometry, the following antibodies were used (all anti-human): CD8-PE (clone RPA-T8), CD45-PerCP-Cy5.5 (2D1), CD274 (PD-L1)-APC (MIH1) (all BD Biosciences), CD279 (PD-1)-PE (EH12.2H7, Biolegend), HLA-A2^− PE (BB7.2, Santa Cruz).
In general terms: In qPCR the cycle at which signal appears reflects the starting amount.

The subject of the next assay is HLA-A2. In words: HLA-A2 expression on CRC organoid lines with and without IFN-γ stimulation (flow cytometry). The settings on record: HLA-A2 negative CRC organoids, 20 ng/ml recombinant human IFN-γ. It is filed as cell-based. As for the experimental part: FIG. 10. HLA-A2 expression on clonally expanded HLA-A2^+ and HLA-A2^− CRC organoid lines. […] Flow cytometry analysis of HLA-A2 expression on normal (left panel), HLA-A2^+ CRC (middle panel) and HLA-A2^− CRC (right panel) lines with and without stimulation with 20 ng/ml recombinant human IFN-γ.
as §1
(In general: Flow cytometry measures light scatter and fluorescence of single cells or particles in a stream.)

B1: IFN-γ: recombinant human interferon gamma used to stimulate organoids (20 ng/mL) (protein, UniProt P01579 24-161, looked up)
Interferon gamma: QDPYVKEAENLKKYFNAGHSDVADNGTLFLGILKNWKEESDRKIMQSQIVSFYFKLFKNFKDDQSIQKSVETIKEDMNVKFFNSNKKKRDDFEKLTNYSVTDLNVQRKAIHELIQVMAELSPAAKTGKRKRSQMLFRG
B1: in the assay on CD274 (PD-L1), the “PD-L1 expression on transcript and protein level” value was “dramatically upregulated”. Besides, the HLA-A2 re-expression result in the assay with HLA-A2 is given as “did not trigger HLA-A2 re-expression”.
